This passage reports Kd results from patent US5445935.

The target in the data set is tryptophan repressor (TrpR) (UniProt P0A881 P0A881:2-108). As to the kind of experiment: FP; dimer-DNA Kd from linked monomer-dimer/DNA binding model (preferred fit; dimer-monomer Kd 3.5 nM); 0.2 nM DNA, 10 mM K phosphate, 0.1 mM EDTA, 10% glycerol, pH.

B1: fluorescein-labeled 25-mer trp operator duplex (dsDNA)
DNA 1: CTTGCACTAGTTAACTAGTCAGCAA
DNA 2: TTGCTGACTAGTTAACTAGTGCAAG
B1: the Kd (in general, the constant that tells how readily two partners part at equilibrium) is 0.23 nM.
